Measured values as given in patent US20180371076A1, “MATERNAL TH17 CELLS AND PSYCHIATRIC DISORDERS” (New York University, priority 2017, published 2018).

Legend:
[1] = test system: cortex of the fetal brain; assay: Cortical development: SATB2/TBR1/CTIP2 immunohistochemistry of fetal and adult offspring brain; assay type: in vivo, mouse
Protocol: Immunohistochemistry. Animals were transcardially perfused with 4% paraformaldehyde in PBS under Ketamine/xylazine anesthesia. The brains were removed and sectioned at 100-μm thickness with a Leica VT1000S vibratome (Leica, USA). Slices were permeabilized with blocking solution containing 0.4% Triton X-100, 2% goat serum, and 1% BSA in PBS for 1 hr at room temperature, and then incubated with anti-TBR1 (ab31940, Abcam), anti-SATB2 (ab51502, Abcam) and anti-CTIP2 (ab18465, Abcam) antibodies overnight at 4° C. The following day, slices were incubated with fluorescently conjugated secondary antibodies (Invitrogen, USA) for 1 h at room temperature, and mounted in vectashield mounting medium with DAPI (Vector laboratories). Images of stained brain slices were acquired using a confocal microscope (LSM710; Carl Zeiss) with a 20× objective lens; all image settings were kept constant.
Intraventricular cytokine injection At E14.5, uterine horns of pregnant mice were exposed by a caudal ventral midline incision (<2 cm). Each uterine horn was exteriorized carefully and each fetus was identified. Recombinant mouse IL-17a cytokine (R&D, 0.6 μL of 2 ng/μL), IL-6 (R&D, 0.6 μL of 10 ng/μL) or saline together with the dye Fast Green (Sigma, 0.3 mg/mL) was injected (3-4 μL) into the third ventricle of each embryo by a pulled micropipette. After injection of all embryos, the uterus was replaced within the abdomen and the cavity was lavaged with warm sterile saline.
Immunohistochemistry Fetal brains of male embryos were dissected and fixed with 4% paraformaldehyde in PBS for 6 h at 4° C. Adult brains of male offspring were perfused and fixed with 4% paraformaldehyde in PBS for overnight at 4° C. The brains were removed and sectioned at 50-μm thickness with a Leica VT1000S vibratome (Leica, USA). Slices were permeabilized with blocking solution containing 0.4% Triton X-100, 2% goat serum, and 1% BSA in PBS for 1 h at room temperature, and then incubated with anti-TBR1 (ab31940, Abcam), anti-SATB2 (ab51502, Abcam), and anti-CTIP2 (ab18465, Abcam) antibodies overnight at 4° C. The following day, slices were incubated with fluorescently conjugated secondary antibodies (Invitrogen, USA) for 1 h at room temperature, and mounted in vectashield mounting medium with DAPI (Vector laboratories). Images of stained brain slices were acquired using a confocal microscope (LSM710; Carl Zeiss) with a 20× objective lens; all image settings were kept constant. Spatial locations of the patches were registered based on their distance from the midline of the brain. These cortical malformations were quantified using cropped images containing the malformations, or the corresponding region in WT brains. The region of interest (300×300 μm^2) was divided into 10 equal laminar blocks representing different depths of the cortical plate. SATB2-, TBR1-, or […] cells were counted using Image J software. Signal intensity in each image was normalized relative to the total signal intensity.

[2] = test system: offspring of pregnant mice (MIA mouse model); assay: Ultrasonic vocalization (USV) assay in pups, MIA mouse model; assay type: in vivo
Protocol: Maternal Immune Activation. Mice were mated overnight and females were checked daily for the presence of seminal plugs, noted as embryonic day 0.5 (E0.5). On E12.5, pregnant female mice were weighed and injected with a single dose (20 mg/kg; i.p.) of poly(I:C) (Sigma Aldrich) or PBS vehicle. Each dam was returned to its cage and left undisturbed until the birth of its litter. All pups remained with the mother until weaning on postnatal day 21 (P21), at which time mice were group housed at maximum 5 per cage with same-sex littermates. For the IL-17 cytokine blockade experiment, monoclonal IL-17a blocking antibody (clone 50104; R&D) or isotype control antibody (IgG2a, clone 54447; R&D) was administered 6 h before maternal immune activation (FIG. 2) via i.p. route (500 μg/animal) or 2 days after maternal immune activation (FIG. 5) via i.p. route (500 μg/animal).
Ultrasonic vocalizations. On postnatal day 9, mice were removed from the nest and placed in a 15-cm diameter dish in a sound-attenuated chamber. Mouse ultrasonic vocalizations (USVs) were detected for 3 min using an UltraSoundGateCM16/CMPA microphone (AviSoft) in the chamber under stable temperature and light control, and recorded with SAS Prolab software (AviSoft). For certain USV tests, Ultravox software (Noldus information Technology, USA) was used. An amplitude filter was used to eliminate extraneous peripheral noise (i.e. HVAC). Due to the unreliability of automated USV scoring, all pup USVs were measured and confirmed manually by observers blind to the experimental conditions.
Maternal Immune Activation Mice were mated overnight and females were checked daily for the presence of seminal plugs, noted as embryonic day 0.5 (E0.5). On E12.5, pregnant female mice were weighed and injected with a single dose (20 mg/kg; i.p.) of poly(I:C) (Sigma Aldrich) or PBS vehicle. Each dam was returned to its cage and left undisturbed until the birth of its litter. All pups remained with the mother until weaning on postnatal day 21 (P21), at which time mice were group housed at maximum 5 per cage with same-sex littermates. For the IL-17 cytokine blockade experiment, monoclonal IL-17a blocking antibody (clone 50104; R&D) or isotype control antibody (IgG2a, clone 54447; R&D) were administered 6 h before maternal immune activation via i.p. route (500 μg/animal). For IL-6 cytokine injection into pregnant dams, carrier-free recombinant mouse IL-6 (R&D) was administered as a single dose (10 μg/animal; i.p.). For testing anti-IL17a therapeutic effects, IL-17a blocking antibody or isotype control antibody (as described above) was administered 2 days after maternal immune activation (500 μg/animal; i.p.).
Ultrasonic vocalizations On postnatal day 7-9, both male and female mice were removed from the nest and habituated to the testing room for 15 minutes (separate of dam). After the habituation period, mouse pups were placed in a clean 15 cm glass pyrex high wall dish. Mouse pup ultrasonic vocalizations (USVs) were then detected for 3 min using an UltraSoundGateCM16/CMPA microphone (AviSoft) in the sound attenuation chamber under stable temperature and light control (15 lux), and recorded with SAS Prolab software (AviSoft). USVs were measured between 33-125 kHz. USVs were scored as contiguous if gaps between vocalizations were <0.02 msec. For certain USV tests, Ultravox software (Noldus information Technology, USA) was used. An amplitude filter was used to eliminate extraneous peripheral noise (i.e. HVAC). Due to the unreliability of automated USV scoring, all pup USVs were measured and confirmed manually by observers blind to the experimental conditions.
Intraventricular cytokine injection At E14.5, uterine horns of pregnant mice were exposed by a caudal ventral midline incision (<2 cm). Each uterine horn was exteriorized carefully and each fetus was identified. […]

[3] = injection into pregnant WT mothers (10 μg/animal; i.p.)

**Q.** Which results are given for poly(I:C)?
**A.** cortical thickness of the fetal brains at E18.5 ([1]; MIA (poly(I:C))): did not affect cortical thickness; cortical cytoarchitecture at E18.5 ([1]; MIA (poly(I:C)) vs PBS): patch of disorganized cortical cytoarchitecture; SATB2 and SATB2/TBR1 expression in fetal brain cortical plates at E14.5 and E18.5 ([1]; MIA (poly(I:C)) vs control): abnormal expression; SATB2 expression at E14.5 ([1]; MIA (poly(I:C)) vs control): delayed expression of SATB2; abnormal expression of SATB2, TBR1 and CTIP2 in adult offspring ([1]; MIA adult offspring (P60)): maintained; number of pup USV calls ([2]; poly(I:C)-injected mothers pretreated with control antibody, vs PBS-injected mothers): emitted more USV calls

B1: recombinant IL-6: carrier-free recombinant mouse IL-6 (R&D) (protein, UniProt P08505 25-211, looked up)
Interleukin-6: FPTSQVRRGDFTEDTTPNRPVYTTSQVGGLITHVLWEIVEMRKELCNGNSDCMNNDDALAENNLKLPEIQRNDGCYQTGYNQEICLLKISSGLLEYHSYLEYMKNNLKDNKKDKARVLQRDTETLIHIFNQEVKDLHKIVLPTPISNALLTDKLESQKEWLRTKTIQFILKSLEEFLKVTLRSTRQT
**Q.** How did the “cortical phenotype in offspring” value [1, 3] turn out when B1 was run?
**A.** sufficient to produce MIA-associated behavioral (enhanced USV) and cortical phenotypes

**Q.** What about the USV phenotype ([2]; injection into WT fetal brains at E14.5) of the same molecule?
**A.** nor enhanced USV phenotypes were observed

**Q.** And the “USV phenotype in offspring” value [2, 3]?
**A.** enhanced USV

B2: recombinant IL-17a protein: Recombinant mouse IL-17a cytokine (R&D), injected into the fetal brain ventricle (protein, UniProt Q62386 26-158, looked up)
Interleukin-17A: AAIIPQSSACPNTEAKDFLQNVKVNLKVFNSLGAKVSSRRPSDYLNRSTSPWTLHRNEDPDRYPSVIWEAQCRHQRCVNAEGKLDHHMNSVLIQQEILVLKREPESCPFTFRVEKMLVGVGCTCVASIVRQAA
**Q.** Which “cortical organization (SATB2, TBR1) at E18.5” value ([1]; injected into the ventricles of the fetal brain at E14.5 in the absence of MIA) does the source give for B2 here?
**A.** appearance of disorganized cortical patches

**Q.** What about the “thickness of the cortical plate at E18.5” value ([1]; intra-ventricular injection at E14.5) of the same molecule?
**A.** thinned cortical plates at the medial but not lateral part of the brain

**Q.** And the “pup USVs” value ([2]; injection into brains of fetuses from poly(I:C)-injected IL-6 KO mothers, vs PBS-injected controls)?
**A.** increased pup USVs

**Q.** And the USV phenotype ([2]; injection into the ventricles of IL-17Ra KO fetuses)?
**A.** nor enhanced USV phenotypes were observed

**Q.** What about the USV phenotype ([2]; intra-ventricular injection at E14.5, compared with sham injection) of the same molecule?
**A.** enhanced USV phenotype
